First the molecules themselves.
B1: peptide HD2 (from tick evasin EVA4) / CXCL13 (biotinylated, synthetic) (parent complex)
chain 1: EEDDYTAYAPLTCYFT
chain 2: VLEVYYTSLRCRCVQESSVFIPRRFIDRIQILPRGNGCPRKEIIVWKKNKSIVCVDPQAEWIQRMMEVLRKRSSSTLPVPVFKRKIP
B2: peptide HD2 (from tick evasin EVA4) / CCL19 (biotinylated, synthetic) (parent complex)
chain 1: EEDDYTAYAPLTCYFT
chain 2: GTNDAEDCCLSVTQKPIPGYIVRNFHYLLIKDGCRVPAVVFTTLRGRQLCAPPDQPWVERIIQRLQRTSAKMKRRSS

One test covers variants of B1.
In the case of chain 1 HEDDYTAYAPLTCYFT [chain 1 E1H], the enrichment is -3.17 log2 (difference from the parental peptide).
Same read-out and setting: the same measure for chain 1 TEDDYTAYAPLTCYFT [chain 1 E1T]: -1.65 log2 (difference from the parental peptide).
Still for that read-out and setting: the result for chain 1 QEDDYTAYAPLTCYFT [chain 1 E1Q] reads -0.204 log2 (difference from the parental peptide); that for chain 1 PEDDYTAYAPLTCYFT [chain 1 E1P], -3.73 log2 (difference from the parental peptide); that for chain 1 AEDDYTAYAPLTCYFT [chain 1 E1A], -0.971 log2 (difference from the parental peptide).
On the same count and under the same terms, the result for chain 1 EEDDYTAYAPLTCWFT [chain 1 Y14W] reads -2.89 log2 (difference from the parental peptide); that for chain 1 EEDDYTAYAPLTCTFT [chain 1 Y14T], -6.13 log2 (difference from the parental peptide); that for chain 1 EEDDYTAYAPLTCVFT [chain 1 Y14V], -9.22 log2 (difference from the parental peptide).
For chain 1 EEDDYTAYAPLTCMFT [chain 1 Y14M], the enrichment was -7.75 log2 (difference from the parental peptide).
Regarding chain 1 EEDDYTAYAPLTCFFT [chain 1 Y14F], the enrichment was -0.356 log2 (difference from the parental peptide).
On the same count and under the same terms, the result for chain 1 EEYDYTAYAPLTCYFT [chain 1 D3Y] reads -2.28 log2 (difference from the parental peptide).
Same read-out and setting: the result for chain 1 EEGDYTAYAPLTCYFT [chain 1 D3G] reads -5.23 log2 (difference from the parental peptide); that for chain 1 EEQDYTAYAPLTCYFT [chain 1 D3Q], -3.76 log2 (difference from the parental peptide).
The same measure, in the same setting: the same measure for chain 1 EEVDYTAYAPLTCYFT [chain 1 D3V]: -5.31 log2 (difference from the parental peptide).
Regarding chain 1 EETDYTAYAPLTCYFT [chain 1 D3T], the enrichment is -4.07 log2 (difference from the parental peptide).
Regarding chain 1 EEWDYTAYAPLTCYFT [chain 1 D3W], the enrichment is -0.789 log2 (difference from the parental peptide).
For the variant chain 1 EEDDVTAYAPLTCYFT [chain 1 Y5V], the enrichment is -2.43 log2 (difference from the parental peptide).
Same read-out and setting: the same measure for chain 1 EEDDITAYAPLTCYFT [chain 1 Y5I]: -1.67 log2 (difference from the parental peptide); for chain 1 EEDDWTAYAPLTCYFT [chain 1 Y5W]: 5.05 log2 (difference from the parental peptide).
Same read-out and setting: the result for chain 1 EEDDYTAYAVLTCYFT [chain 1 P10V] reads -9.15 log2 (difference from the parental peptide); that for chain 1 EEDDYTAYAWLTCYFT [chain 1 P10W], -7.62 log2 (difference from the parental peptide).
As for chain 1 EEDDYTAYAALTCYFT [chain 1 P10A], the enrichment was -4.03 log2 (difference from the parental peptide).
On to chain 1 EEDDYTAYAELTCYFT [chain 1 P10E], for which the enrichment was -2.35 log2 (difference from the parental peptide).
The same measure, in the same setting: the result for chain 1 EEDDYTAYAHLTCYFT [chain 1 P10H] reads -5.73 log2 (difference from the parental peptide); that for chain 1 EADDYTAYAPLTCYFT [chain 1 E2A], -1.7 log2 (difference from the parental peptide).
For the variant chain 1 ETDDYTAYAPLTCYFT [chain 1 E2T], the enrichment was -3.42 log2 (difference from the parental peptide).
Regarding chain 1 ENDDYTAYAPLTCYFT [chain 1 E2N], the enrichment is -3.27 log2 (difference from the parental peptide).
Consider chain 1 ELDDYTAYAPLTCYFT [chain 1 E2L], for which the enrichment is -1.53 log2 (difference from the parental peptide).
Turning to chain 1 EPDDYTAYAPLTCYFT [chain 1 E2P], the enrichment was -4.82 log2 (difference from the parental peptide).
On the same count and under the same terms, the same measure for chain 1 EEDDYYAYAPLTCYFT [chain 1 T6Y]: 3.32 log2 (difference from the parental peptide).
Regarding chain 1 EEDDYLAYAPLTCYFT [chain 1 T6L], the enrichment was 1.48 log2 (difference from the parental peptide).
As for chain 1 EEDDYSAYAPLTCYFT [chain 1 T6S], the enrichment was 2.15 log2 (difference from the parental peptide).
As to chain 1 EEDDYFAYAPLTCYFT [chain 1 T6F], the enrichment is 1.42 log2 (difference from the parental peptide).
Consider chain 1 EEDDYTMYAPLTCYFT [chain 1 A7M], for which the enrichment was 3.01 log2 (difference from the parental peptide).
On the same count and under the same terms, the result for chain 1 EEDDYTPYAPLTCYFT [chain 1 A7P] reads 1.36 log2 (difference from the parental peptide); that for chain 1 EEDDYTVYAPLTCYFT [chain 1 A7V], 0.636 log2 (difference from the parental peptide).
In the case of chain 1 EEDDYTFYAPLTCYFT [chain 1 A7F], the enrichment was 0.877 log2 (difference from the parental peptide).
On the same count and under the same terms, the same measure for chain 1 EEDDYTIYAPLTCYFT [chain 1 A7I]: 0.819 log2 (difference from the parental peptide).
Same read-out and setting: the result for chain 1 EEDDYTGYAPLTCYFT [chain 1 A7G] reads 1.15 log2 (difference from the parental peptide).
In the case of chain 1 EEDDYTAYAPLCCYFT [chain 1 T12C], the enrichment is -5.24 log2 (difference from the parental peptide).
As for chain 1 EEDDYTAYAPLRCYFT [chain 1 T12R], the enrichment was -8.86 log2 (difference from the parental peptide).
Turning to chain 1 EEDDYTAYAPLPCYFT [chain 1 T12P], the enrichment was -5.86 log2 (difference from the parental peptide).
On the same count and under the same terms, the same measure for chain 1 EEDDYTAYAPLYCYFT [chain 1 T12Y]: -0.431 log2 (difference from the parental peptide); for chain 1 EEDDYTAYAPLWCYFT [chain 1 T12W]: -0.341 log2 (difference from the parental peptide).
In the case of chain 1 EEDHYTAYAPLTCYFT [chain 1 D4H], the enrichment was -5.54 log2 (difference from the parental peptide).
Turning to chain 1 EEDWYTAYAPLTCYFT [chain 1 D4W], the enrichment was -0.19 log2 (difference from the parental peptide).
On the same count and under the same terms, the result for chain 1 EEDVYTAYAPLTCYFT [chain 1 D4V] reads -5.82 log2 (difference from the parental peptide); that for chain 1 EEDFYTAYAPLTCYFT [chain 1 D4F], -4.23 log2 (difference from the parental peptide).
Consider chain 1 EEDNYTAYAPLTCYFT [chain 1 D4N], for which the enrichment was -3.74 log2 (difference from the parental peptide).
As to chain 1 EEDDYTAYAPLTVYFT [chain 1 C13V], the enrichment is -5.3 log2 (difference from the parental peptide).
As to chain 1 EEDDYTAYAPLTIYFT [chain 1 C13I], the enrichment is -4.63 log2 (difference from the parental peptide).
For the variant chain 1 EEDDYTAYAPLTEYFT [chain 1 C13E], the enrichment is -6.71 log2 (difference from the parental peptide).
Same read-out and setting: the same measure for chain 1 EEDDYTAWAPLTCYFT [chain 1 Y8W]: 2.6 log2 (difference from the parental peptide); for chain 1 EEDDYTAFAPLTCYFT [chain 1 Y8F]: 0.328 log2 (difference from the parental peptide).
As to chain 1 EEDDYTAHAPLTCYFT [chain 1 Y8H], the enrichment was -6.35 log2 (difference from the parental peptide).
Same read-out and setting: the same measure for chain 1 EEDDYTAIAPLTCYFT [chain 1 Y8I]: -4.99 log2 (difference from the parental peptide); for chain 1 EEDDYTAEAPLTCYFT [chain 1 Y8E]: -1.96 log2 (difference from the parental peptide).
Same read-out and setting: the same measure for chain 1 EEDDYTASAPLTCYFT [chain 1 Y8S]: -4.52 log2 (difference from the parental peptide); for chain 1 EEDDYTAYEPLTCYFT [chain 1 A9E]: 1.61 log2 (difference from the parental peptide); for chain 1 EEDDYTAYLPLTCYFT [chain 1 A9L]: -0.527 log2 (difference from the parental peptide).
chain 1 EEDDYTAYNPLTCYFT [chain 1 A9N]: the enrichment is -3.98 log2 (difference from the parental peptide).
Regarding chain 1 EEDDYTAYVPLTCYFT [chain 1 A9V], the enrichment was -5.11 log2 (difference from the parental peptide).
Still for that read-out and setting: the result for chain 1 EEDDYTAYTPLTCYFT [chain 1 A9T] reads -1.4 log2 (difference from the parental peptide); that for chain 1 EEDDYTAYPPLTCYFT [chain 1 A9P], 2.11 log2 (difference from the parental peptide).
On the same count and under the same terms, the result for chain 1 EEDDYTAYFPLTCYFT [chain 1 A9F] reads -2.3 log2 (difference from the parental peptide); that for chain 1 EEDDYTAYQPLTCYFT [chain 1 A9Q], -0.472 log2 (difference from the parental peptide).
Regarding chain 1 EEDDYTAYAPLTCYFY [chain 1 T16Y], the enrichment was -0.167 log2 (difference from the parental peptide).
Take chain 1 EEDDYTAYAPLTCYFC [chain 1 T16C]: the enrichment is 0.44 log2 (difference from the parental peptide).
Same read-out and setting: the same measure for chain 1 EEDDYTAYAPLTCYFA [chain 1 T16A]: 0.703 log2 (difference from the parental peptide); for chain 1 EEDDYTAYAPRTCYFT [chain 1 L11R]: -5.68 log2 (difference from the parental peptide); for chain 1 EEDDYTAYAPTTCYFT [chain 1 L11T]: -3.85 log2 (difference from the parental peptide).
Regarding chain 1 EEDDYTAYAPLTCYYT [chain 1 F15Y], the enrichment was -0.776 log2 (difference from the parental peptide).
Same read-out and setting: the result for chain 1 EEDDYTAYAPLTCYQT [chain 1 F15Q] reads -6.18 log2 (difference from the parental peptide).

In a further test the parent is B2.
As to chain 1 EEDDYTAYPPLTCYFT [chain 1 A9P], the enrichment was -3.61 log2 (difference from the parental peptide).
Take chain 1 EEDDYTAYWPLTCYFT [chain 1 A9W]: the enrichment is 2 log2 (difference from the parental peptide).
For the variant chain 1 EEDDYTAYEPLTCYFT [chain 1 A9E], the enrichment is -4.22 log2 (difference from the parental peptide).
The same measure, in the same setting: the same measure for chain 1 WEDDYTAYAPLTCYFT [chain 1 E1W]: 3.38 log2 (difference from the parental peptide).
Consider chain 1 EEPDYTAYAPLTCYFT [chain 1 D3P], for which the enrichment is -6.49 log2 (difference from the parental peptide).
The same measure, in the same setting: the result for chain 1 EEVDYTAYAPLTCYFT [chain 1 D3V] reads -8.31 log2 (difference from the parental peptide).
chain 1 EEDDLTAYAPLTCYFT [chain 1 Y5L]: the enrichment is -3.97 log2 (difference from the parental peptide).
As for chain 1 EEDDYTALAPLTCYFT [chain 1 Y8L], the enrichment was -8.33 log2 (difference from the parental peptide).
On the same count and under the same terms, the same measure for chain 1 EEDDYTAYAPLTCWFT [chain 1 Y14W]: -2.78 log2 (difference from the parental peptide); for chain 1 EEDDYTAYAPLTCMFT [chain 1 Y14M]: -7.94 log2 (difference from the parental peptide); for chain 1 EEDDYTAYAPLTCHFT [chain 1 Y14H]: -4.96 log2 (difference from the parental peptide).
For the variant chain 1 EEDDYTAYAPLTCIFT [chain 1 Y14I], the enrichment is -6.25 log2 (difference from the parental peptide).
On the same count and under the same terms, the same measure for chain 1 EEDDYVAYAPLTCYFT [chain 1 T6V]: -2.16 log2 (difference from the parental peptide); for chain 1 EEDDYEAYAPLTCYFT [chain 1 T6E]: 1.9 log2 (difference from the parental peptide); for chain 1 EEDDYQAYAPLTCYFT [chain 1 T6Q]: -0.425 log2 (difference from the parental peptide).
Still for that read-out and setting: the same measure for chain 1 EEDDYIAYAPLTCYFT [chain 1 T6I]: -2.29 log2 (difference from the parental peptide).
Consider chain 1 EEDDYPAYAPLTCYFT [chain 1 T6P], for which the enrichment was -4.5 log2 (difference from the parental peptide).
On to chain 1 EEDDYFAYAPLTCYFT [chain 1 T6F], for which the enrichment is 2.62 log2 (difference from the parental peptide).
Still for that read-out and setting: the result for chain 1 EEDDYTAYAPLTLYFT [chain 1 C13L] reads -7.7 log2 (difference from the parental peptide); that for chain 1 EEDDYTAYAPLTNYFT [chain 1 C13N], -2.93 log2 (difference from the parental peptide).
Same read-out and setting: the result for chain 1 EEDDYTQYAPLTCYFT [chain 1 A7Q] reads 0.522 log2 (difference from the parental peptide); that for chain 1 EEDDYTPYAPLTCYFT [chain 1 A7P], -4.29 log2 (difference from the parental peptide).
Still for that read-out and setting: the same measure for chain 1 EEDDYTRYAPLTCYFT [chain 1 A7R]: -0.336 log2 (difference from the parental peptide).
As for chain 1 EEDDYTFYAPLTCYFT [chain 1 A7F], the enrichment is 1.3 log2 (difference from the parental peptide).
Still for that read-out and setting: the same measure for chain 1 EEDDYTTYAPLTCYFT [chain 1 A7T]: -0.798 log2 (difference from the parental peptide); for chain 1 EEDDYTAYAPLTCYFI [chain 1 T16I]: 0.728 log2 (difference from the parental peptide); for chain 1 EEDDYTAYAPLSCYFT [chain 1 T12S]: -6.54 log2 (difference from the parental peptide).
On the same count and under the same terms, the result for chain 1 EEDDYTAYAPLKCYFT [chain 1 T12K] reads -6.56 log2 (difference from the parental peptide); that for chain 1 EEDDYTAYAPLNCYFT [chain 1 T12N], -6.73 log2 (difference from the parental peptide); that for chain 1 EEDDYTAYAPLRCYFT [chain 1 T12R], -3.3 log2 (difference from the parental peptide).
Still for that read-out and setting: the same measure for chain 1 EEDDYTAYAPATCYFT [chain 1 L11A]: -6.47 log2 (difference from the parental peptide); for chain 1 EEDDYTAYAPFTCYFT [chain 1 L11F]: -0.375 log2 (difference from the parental peptide); for chain 1 EEDDYTAYAPVTCYFT [chain 1 L11V]: -0.0786 log2 (difference from the parental peptide).
For the variant chain 1 EEDDYTAYAPHTCYFT [chain 1 L11H], the enrichment was -5.81 log2 (difference from the parental peptide).
The same measure, in the same setting: the result for chain 1 ECDDYTAYAPLTCYFT [chain 1 E2C] reads -4.17 log2 (difference from the parental peptide).
Regarding chain 1 EWDDYTAYAPLTCYFT [chain 1 E2W], the enrichment was 3.67 log2 (difference from the parental peptide).
Turning to chain 1 EEDDYTAYAPLTCYGT [chain 1 F15G], the enrichment is -8.74 log2 (difference from the parental peptide).
On the same count and under the same terms, the result for chain 1 EEDDYTAYAPLTCYDT [chain 1 F15D] reads -7.57 log2 (difference from the parental peptide).
Take chain 1 EEDDYTAYAPLTCYAT [chain 1 F15A]: the enrichment was -5.34 log2 (difference from the parental peptide).
